Laboratory results: patent US10799462B2, “Peptide-polypeptide co-assembled nanoparticles for drug delivery” (B. G. Negev Technologies and Applications Ltd., at …, priority 2014, dated 2020)

Assays:
Saos2 cells = assay: XTT cell viability (cytotoxicity); format: cell-based; conditions: Homo sapiens, SAOS-2; Saos2 cultures; results not shown
Description: The cytotoxicity of coated nanoparticles was assessed by monitoring the viability of Saos2 cells in presence of the NPs. All cell cultured were carried in air supplemented with 5% CO2 at 37° C. In 24 wells plate, 3*10^4 cells/well were seeded, in DMEM complete medium and cultured for 4 h. The cells were supplemented with different concentrations of LND-NPs, control NPs, or free LND and cultured overnight. Cells viability was determined by XTT assay following the manufacturer instructions (Life Technologies, California, USA). The XTT solution was added to the wells and cells were incubated for 4 hr after which the absorbance of the samples was measured at 490 nm, by a microplate-reader (BioTek instruments, Winoosky, Vt.). Cells viability is reported as percentage compared to untreated cultured cells.

[1] = Dynamic light scattering (DLS) particle radius; format: physicochemical; conditions: for Rh* (most common radius measured at 90° using DLS): γ-PGA alone or peptide/γ-PGA NPs 1:1 w/w, n = 9; for Rh: n = 4
Description: (§1) NPs diameter was measured by dynamic light scattering (DLS) (CGS-3 LSE-5003, ALV, Langen, Germany) at different angles of the detector (90, 60 and 30 degrees) and by Small angle X-ray scattering (SAXS) (SAXLAB's GANESHA 300 XL, Skovlunde, Denmark) Sealed Tube Generator: Cu-Ka 0.154 nm (Genix 3D) equipped with a 2D detector (Pilatus 300k). Surface charge was measured by Zetasizer (Zetasizer Nano ZS, Malvern, Worcestershire, UK) and subsequently the data was analyzed using the Smoluchowski model.

[2] = Zeta potential / surface charge by Zetasizer (Smoluchowski model); format: physicochemical; conditions: for ξ zeta potential: n = 4
Description: as §1

[3] = Circular dichroism (CD) secondary structure; format: physicochemical; conditions: for change of CD pattern on mixing with γ-PGA: peptide:γ-PGA 0.25:0.25 mg/ml
Description: CD measurements were performed to characterize secondary structure of peptides in the NPs solution. Spectra in the range of 190-260 nm were recorded at room temperature on CD spectropolarimeter (J-715, Jasco, Tokyo, Japan), using a 1-mm quartz cuvette.

[4] = γ-PGA alone or peptide/γ-PGA NPs 1:1 w/w, n = 9
[5] = γ-PGA/PFK NPs coated with the peptide, coating solution 0.1 mg/ml
[6] = γ-PGA/PFK NPs coated with the peptide, coating solution 0.5 mg/ml
[7] = NPs coated with PFK 0.1 mg/ml, single or repeated addition
[8] = PFK alone or PFK/γ-PGA NPs at different PFK:γ-PGA weight ratios, n = 3

| Molecule | IC50 (Saos2 cells) | Rh* (most common radius measured at 90° using DLS) [1] | ζ zeta potential [2, 4] | change of CD pattern on mixing with γ-PGA [3] | Rh [1, 5] | Rh [1, 6] | ξ zeta potential [2, 5] | ξ zeta potential [2, 6] | Rh [1, 7] | Radius (Rh, DLS at 90°) [1, 8] | ξ zeta potential [2, 7] | ζ zeta potential [2, 8] | θ215/θ203 (β-sheet relative to unfolded) as function of pH ([3]; PFK alone or 1:1 w/w with γ-PGA) |
| --- | --- | --- | --- | --- | --- | --- | --- | --- | --- | --- | --- | --- | --- |
| O=C(O)c1nn(Cc2ccc(Cl)cc2Cl)c2ccccc12 [free LND, Lonidamine] | 1.3 mM | – | – | – | – | – | – | – | – | – | – | – | – |
| FK(FK)5F (FKFKFKFKFKFKF) [free termini version of the amphiphilic peptide] | – | 7.41 ± 1.7 nm | −43.71 ± 9.2 mV | most pronounced shift to β-sheet structure | – | – | – | – | – | – | – | – | – |
| KFFFKKFFKFFKK [rFK, scrambled order control of FK] | – | 6.45 ± 1.2 nm | −38.78 ± 3.92 mV | primarily the Phe-Phe side chain type of absorption | – | – | – | – | – | – | – | – | – |
| KFFPKKPFKFFKK [rPFK, scrambled order control of PFK] | – | 9.57 ± 6 nm | −25.26 ± 8.79 mV | almost no change in its CD pattern | 11.04 ± 7.77 nm | 9.72 ± 1.03 nm | −37.26 ± 7.03 mV | −36.0 ± 2.69 mV | – | – | – | – | – |
| PK(FK)5P (PKFKFKFKFKFKP) [PFK, proline capped amphiphilic cationic 13-residue peptide] | – | 11.4 ± 2 nm | −49.3 ± 2 mV | most pronounced shift to β-sheet structure | 9.8 ± 0.23 nm | 52.2 ± 50.63 nm | −33.52 ± 3.11 mV | −35.42 ± 4.5 mV | 9.8 ± 0.23 nm | Non spherical NPs | −33.52 ± 3.11 mV | 11.6 ± 5 mV | steep increase in θ215/θ203 value at pH˜8 |
